Measurements as given in paper PMC7804310 (2021).

Columns and labels:
Assay in all cases: SPR
[1] = molecular target: recombinant cynomolgus monkey MTf(20-709) extracellular domain (cynomolgus monkey)
[2] = molecular target: T1, recombinant human Melanotransferrin MTf(20-709) extracellular domain (human, UniProt P08582-1 20-709, N-glycans at Asn 38, Asn 135 and Asn 515 (high mannose N-glycans favoured by kifunensine for crystallization))
T1 chain: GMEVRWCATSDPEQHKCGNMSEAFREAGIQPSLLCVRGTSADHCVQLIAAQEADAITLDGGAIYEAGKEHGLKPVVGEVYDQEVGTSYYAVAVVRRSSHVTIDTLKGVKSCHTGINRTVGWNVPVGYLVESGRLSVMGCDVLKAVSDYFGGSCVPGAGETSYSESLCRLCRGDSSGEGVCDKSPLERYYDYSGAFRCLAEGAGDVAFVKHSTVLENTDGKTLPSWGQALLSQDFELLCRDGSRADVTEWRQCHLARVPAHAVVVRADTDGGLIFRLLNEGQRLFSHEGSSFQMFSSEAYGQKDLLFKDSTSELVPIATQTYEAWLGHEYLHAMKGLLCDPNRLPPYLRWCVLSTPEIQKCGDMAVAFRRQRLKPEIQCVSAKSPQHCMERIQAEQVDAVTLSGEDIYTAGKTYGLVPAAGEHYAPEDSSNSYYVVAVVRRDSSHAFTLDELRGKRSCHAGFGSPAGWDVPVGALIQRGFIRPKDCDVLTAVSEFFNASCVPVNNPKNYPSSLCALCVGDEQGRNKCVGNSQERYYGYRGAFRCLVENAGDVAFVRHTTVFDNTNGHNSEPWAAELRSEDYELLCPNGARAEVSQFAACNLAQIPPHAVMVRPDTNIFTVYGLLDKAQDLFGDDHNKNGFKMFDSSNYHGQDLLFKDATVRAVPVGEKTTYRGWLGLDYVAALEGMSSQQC

[3] = molecular target: T1, recombinant human Melanotransferrin …

B1: SC57.32 Fab fragment (Fab, V domains shown)
VH: QVQLQQSGAELMKPGASVKISCKATGYTFSNYRIEWIKQRPGHGLEWIGEILPRGGNTNYNEKFKGKATFTADTSSNTAYMQLTSLTSEDSAVYYCARDDGYYGRFAYWGQGTLVTVSA
VL: DIQMTQTTSSLSASLGDRVTISCRASQDISNYLNWYQQKPDGTVKLLIFYTSRLHSGVPSRFSGSGSGTDYSLTISNLEQEDFATYFCQQGNTLPPTFGGGTKLEIK
- Kd [1]: 1.1 nM
- koff [1]: 0.00047 s⁻¹
- Kd [2]: 1 nM
- koff [3]: 0.00048 s⁻¹
